{"source": "paper PMC4392246", "about": "“Structure of a BAG6 (Bcl-2-associated Athanogene 6)-Ubl4a (Ubiquitin-like Protein 4a) Complex Reveals a Novel Binding Interface That Functions in Tail-anchored Protein Biogenesis*” (The Journal of Biological Chemistry, 2015)", "binders": {"B1": {"name": "BAG6 BAGS domain (residues 1048–1123) (domain or fragment, human, UniProt P46379-2 1048-1123, looked up)", "chain": "MQGEGPQLLLSEAVSRAAKAAGARPLTSPESLSRDLEAPEVQESYRQQLRSDIQKRLQEDPNYSPQRFPNAQRAFA", "notes": "BAG6, C-terminal BAGS domain, residues 1048-1123; printed length of BAG6 1,126 residues; Removal of GST is told for the crystallised complex; also called BAG6(1048–1123)"}}, "key": {"[1]": {"target": "T1, full-length Ubl4a (residues 1–157), recombinant (Homo sapiens, UniProt P11441 1-157)", "T1 construct": "Ubl4a, Homo sapiens, residues 1-157; also called Ubl4a(1–157); full-length Ubl4a wild type; source: recombinant", "T1 sequence (looked up)": "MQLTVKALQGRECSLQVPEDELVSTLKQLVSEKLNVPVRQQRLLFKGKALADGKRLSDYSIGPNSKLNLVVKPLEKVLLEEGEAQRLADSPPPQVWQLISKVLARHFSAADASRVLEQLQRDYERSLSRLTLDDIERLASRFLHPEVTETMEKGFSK", "assay": "SPR; BAGS domain (residues 1048-1123) immobilised on a CM5 chip by amine coupling; wild-type and mutant Ubl4a as analytes; 298 K; HBS-P (10 mM HEPES, 150 mM NaCl, 0.05% Surfactant P20, pH 7.2); 30 μl/min; two-state reaction model, overall dissociation constant", "conditions": "both partners purified"}, "[2]": {"target": "T2, full-length Ubl4a H106E mutant, recombinant (Homo sapiens, UniProt P11441 1-157, H106E)", "T2 construct": "Ubl4a, Homo sapiens, 157 amino acids, with H106E; also called H106E Ubl4a; source: recombinant", "T2 sequence (looked up)": "T1 sequence (looked up) with H106E", "assay": "SPR; BAGS domain (residues 1048-1123) immobilised on a CM5 chip by amine coupling; wild-type and mutant Ubl4a as analytes; 298 K; HBS-P (10 mM HEPES, 150 mM NaCl, 0.05% Surfactant P20, pH 7.2); 30 μl/min; two-state reaction model, overall dissociation constant", "conditions": "both partners purified"}}, "note": "Positions count from the first letter of the chain named.", "data": [{"binder": "B1", "values": [{"measurement": "Kd", "setting": "[1]", "result": "2.2 ± 0.5", "unit": "nM"}, {"measurement": "Kd", "setting": "[2]", "result": "1600 ± 80", "unit": "nM"}]}]}
